Laboratory results taken from patent US10227388B2, “Peptides and combination of peptides for use in immunotherapy against non-small cell lung cancer and other cancers” (immatics biotechnologies GmbH, priority 2015, dated 2019).

molecular target: HLA-A*02:01 (Homo sapiens, UniProt P04439, D140Y/D185E/D98H/E176V/E277Q/G131W/G231S/I119V/I121R/I166T/I218V/L300P/L318F/N151K/N90K/P208A/P217A/Q86G/Q94H/R138H/R169H/T345S); experiment: MHC binding assay (UV-ligand exchange, ELISA, peptide exchange yield); settings: binding of HLA-class I restricted peptides to HLA-A*02:01
How it was run: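 Exchange yield was quantified as stabilized β2m-containing complex: monomers diluted 100-fold bound to streptavidin-coated wells, probed with HRP-conjugated anti-β2m, read at 450 nm after TMB. Complexes had been generated by UV cleavage of a photolabile ligand and replacement with the candidate peptide.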

Peptide exchange (MHC class I binding score, peptide exchange yield) | Substance
″++″ (≥20% = ++) | 372 (TMLLNIPLV; listed as Homo sapiens) [compound 372]
″++″ (≥20% = ++) | 373 (SLLEDKGLAEV; listed as Homo sapiens) [compound 373]
″++″ (≥20% = ++) | 374 (FLLQQHLISA; listed as Homo sapiens) [compound 374]
″++″ (≥20% = ++) | 375 (SLTETIEGV; listed as Homo sapiens) [compound 375]
″++″ (≥20% = ++) | 376 (AMFESSQNVLL; listed as Homo sapiens) [compound 376]
″++″ (≥20% = ++) | 377 (FLLDSSASV; listed as Homo sapiens) [compound 377]
″+++″ (≥50% = +++) | 378 (ALGYFVPYV; listed as Homo sapiens) [compound 378]
″++″ (≥20% = ++) | 379 (IMEGTLTRV; listed as Homo sapiens) [compound 379]
″++″ (≥20% = ++) | 380 (TLIEDEIATI; listed as Homo sapiens) [compound 380]
″++″ (≥20% = ++) | 381 (FIDEAYVEV; listed as Homo sapiens) [compound 381]
″++″ (≥20% = ++) | 382 (ALQNYIKEA; listed as Homo sapiens) [compound 382]
″+++″ (≥50% = +++) | 383 (ALLELENSVTL; listed as Homo sapiens) [compound 383]
″++″ (≥20% = ++) | 385 (SLLEQGLVEA; listed as Homo sapiens) [compound 385]
″+++″ (≥50% = +++) | 386 (ILFRYPLTI; listed as Homo sapiens) [compound 386]
″++++″ (≥75% = ++++) | 387 (ALFQATAEV; listed as Homo sapiens) [compound 387]
″+++″ (≥50% = +++) | 388 (SLTIDGIRYV; listed as Homo sapiens) [compound 388]
″++″ (≥20% = ++) | 389 (LLADVTHLL; listed as Homo sapiens) [compound 389]
″+++″ (≥50% = +++) | 390 (ALFMKQIYL; listed as Homo sapiens) [compound 390]
″+++″ (≥50% = +++) | 391 (YVYPQRLNFV; listed as Homo sapiens) [compound 391]
″++″ (≥20% = ++) | 392 (ALLHPQGFEV; listed as Homo sapiens) [compound 392]
″++″ (≥20% = ++) | 393 (GLLDTQTSQVLTA; listed as Homo sapiens) [compound 393]
″+++″ (≥50% = +++) | 394 (LLAVIGGLVYL; listed as Homo sapiens) [compound 394]
″++++″ (≥75% = ++++) | 395 (ALALGGIAVV; listed as Homo sapiens) [compound 395]
″+++″ (≥50% = +++) | 396 (ALLPDLPAL; listed as Homo sapiens) [compound 396]
″+++″ (≥50% = +++) | 397 (YLFGERLLEC; listed as Homo sapiens) [compound 397]
″++″ (≥20% = ++) | 398 (KLLEEDGTIITL; listed as Homo sapiens) [compound 398]
″+++″ (≥50% = +++) | 399 (YLFEPLYHV; listed as Homo sapiens) [compound 399]

Continued, substance first:

Substance | Peptide exchange (MHC class I binding score, peptide exchange yield)
330 (QLALKVEGV; listed as Homo sapiens) [compound 330] | ″+++″ (≥50% = +++)
331 (KVDTVWVNV; listed as Homo sapiens) [compound 331] | ″+++″ (≥50% = +++)
332 (YLISELEAA; listed as Homo sapiens) [compound 332] | ″+++″ (≥50% = +++)
333 (FLPDANSSV; listed as Homo sapiens) [compound 333] | ″++″ (≥20% = ++)
334 (TLTKVLVAL; listed as Homo sapiens) [compound 334] | ″+++″ (≥50% = +++)
335 (YSLSSVVTV; listed as Homo sapiens) [compound 335] | ″+++″ (≥50% = +++)
336 (ILLTAIVQV; listed as Homo sapiens) [compound 336] | ″+++″ (≥50% = +++)
337 (HLLSELEAAPYL; listed as Homo sapiens) [compound 337] | ″++++″ (≥75% = ++++)
339 (GLWEIENNPTVKA; listed as Homo sapiens) [compound 339] | ″++++″ (≥75% = ++++)
340 (ALLSMTFPL; listed as Homo sapiens) [compound 340] | ″++++″ (≥75% = ++++)
341 (SQIALNEKLVNL; listed as Homo sapiens) [compound 341] | ″+++″ (≥50% = +++)
342 (HIYDKVMTV; listed as Homo sapiens) [compound 342] | ″+++″ (≥50% = +++)
343 (SLLEVNEESTV; listed as Homo sapiens) [compound 343] | ″+++″ (≥50% = +++)
344 (YLQDQHLLLTV; listed as Homo sapiens) [compound 344] | ″+++″ (≥50% = +++)
345 (VIWKALIHL; listed as Homo sapiens) [compound 345] | ″+++″ (≥50% = +++)
346 (LLDSKVPSV; listed as Homo sapiens) [compound 346] | ″+++″ (≥50% = +++)
347 (SLFKHDPAAWEA; listed as Homo sapiens) [compound 347] | ″++++″ (≥75% = ++++)
348 (ILLDVKTRL; listed as Homo sapiens) [compound 348] | ″++++″ (≥75% = ++++)
349 (SLTEYLQNV; listed as Homo sapiens) [compound 349] | ″++++″ (≥75% = ++++)
350 (ALLDVTHSELTV; listed as Homo sapiens) [compound 350] | ″+++″ (≥50% = +++)

Substance | Peptide exchange (MHC class I binding score, peptide exchange yield)
351 (SLIPNLRNV; listed as Homo sapiens) [compound 351] | ″+++″ (≥50% = +++)
352 (SLLELLHIYV; listed as Homo sapiens) [compound 352] | ″+++″ (≥50% = +++)
353 (YLFEMDSSL; listed as Homo sapiens) [compound 353] | ″++″ (≥20% = ++)
354 (LILEGVDTV; listed as Homo sapiens) [compound 354] | ″++″ (≥20% = ++)
355 (SIQQSIERLLV; listed as Homo sapiens) [compound 355] | ″++″ (≥20% = ++)
356 (KLLGKLPEL; listed as Homo sapiens) [compound 356] | ″+++″ (≥50% = +++)
357 (SMHDLVLQV; listed as Homo sapiens) [compound 357] | ″+++″ (≥50% = +++)
358 (ALDEYTSEL; listed as Homo sapiens) [compound 358] | ″++++″ (≥75% = ++++)
359 (YLLPESVDL; listed as Homo sapiens) [compound 359] | ″+++″ (≥50% = +++)
361 (ALYELEGTTV; listed as Homo sapiens) [compound 361] | ″+++″ (≥50% = +++)
362 (TLYGLSVLL; listed as Homo sapiens) [compound 362] | ″+++″ (≥50% = +++)
363 (KVLDVSDLESV; listed as Homo sapiens) [compound 363] | ″++″ (≥20% = ++)
364 (LLQNEQFEL; listed as Homo sapiens) [compound 364] | ″+++″ (≥50% = +++)
365 (YVIDQGETDVYV; listed as Homo sapiens) [compound 365] | ″+++″ (≥50% = +++)
366 (RLLDMGETDLML; listed as Homo sapiens) [compound 366] | ″+++″ (≥50% = +++)
367 (SLQNHNHQL; listed as Homo sapiens) [compound 367] | ″+++″ (≥50% = +++)
369 (GLFPEHLIDV; listed as Homo sapiens) [compound 369] | ″+++″ (≥50% = +++)
370 (SLLQDLVSV; listed as Homo sapiens) [compound 370] | ″+++″ (≥50% = +++)
371 (FLQAHLHTA; listed as Homo sapiens) [compound 371] | ″++++″ (≥75% = ++++)
